# Earlier results, collected in patent US12420014B2, “Dosing of incretin pathway drugs” (Closed Loop Medicine Ltd., priority 2023, dated 2025).
# Tests used:
# [1] = for a given plasma level; FIG. 2B [2]
# [2] = subcutaneous administration, patient study data
# [3] = all adverse effects, nausea, vomiting; FIG. 13 [1]
# [4] = PK studies
substance,measurement,setting,value
semaglutide,HbA1c reduction at high starting HbA1c (>8.7%) relative to lower starting levels (<7.4%),[1],3 fold
same,higher clearance observed in patients with Type 2 diabetes,[2],12%
same,plasma level below which side effects reduce,[3],less than 50 nmol/L
same,dependence of plasma concentration on other co-medications,[4],do not show a significant dependence
